Measured values: patent publication US20060153851A1, “CLASP proteins” (ARBOR VITA CORPORATION, published 2006)

Experiments:
[1] = target: GST-PSD95 fusion protein (Homo sapiens (Human), UniProt P78352); test: varying concentrations of biotinylated peptide on plate-bound GST fusion, streptavidin-HRP, fit to a saturation binding curve (FIG. 9B)
Experimental: (§1) 20 μM biotinylated synthetic peptide corresponding to the C-terminal 20 amino acids of CLASP-2 was reacted with the indicated plate bound GST fusion proteins (none=no GST fusion protein coated onto plate). Error bars indicate standard deviation of duplicate measurements. B. Affinity of CLASP 2-PDZ interactions. Varying concentrations of biotinylated CLASP-2 peptide were reacted with plate bound GST alone, GST-DLG1, GST-NeDLG, and GST-PSD95 fusion proteins. The binding to GST alone (<0.1 OD units) was subtracted from the binding to the fusion proteins and the remaining signal was divided by the signal observed upon addition of 30 μM CLASP-2 peptide to each PDZ domain-containing protein (0.4-1.0 OD units) and plotted. […] Data are means of duplicate data points, with standard errors between duplicate data points <10%. C. Inhibition of CLASP-2-PDZ binding. 5 μM biotinylated synthetic peptide corresponding to the C-terminal 20 amino acids of CLASP-2 was reacted with the indicated, plate-bound PDZ domain-containing GST fusion proteins in the presence or absence of 100 μM competitor peptide. CLASP-2 Inhibitor refers to a synthetic peptide composed of the eight C-terminal amino acids of CLASP-2. KV1.3 Inhibitor refers to a synthetic peptide composed of the 19 C-terminal amino acids of KV1.3, a lymphocyte potassium channel. The amino acid sequence of the KV1.3 inhibitor is […]. D. Inhibition of KV1.3-PDZ binding. 5 μM biotinylated synthetic peptide corresponding to the C-terminal 19 amino acids of KV1.3 was reacted with the indicated, plate-bound PDZ-domain containing GST fusion proteins in the presence or absence of 100 μM CLASP-2 Inhibitor (see FIG. 9C legend).
(§2) The binding of a biotinylated carboxyl-terminal peptide to a GST-PDZ fusion protein is measured as follows: [0470] (1) GST fusion protein containing one or more PDZ domain(s) is coated onto a protein-binding surface. […]

[2] = target: GST-DLG1 fusion protein (Homo sapiens (Human), UniProt Q12959); test: as above
Experimental: as §1, §2

[3] = target: T1, GST-NeDLG fusion protein (human, UniProt Q92796); test: as above
T1 sequence: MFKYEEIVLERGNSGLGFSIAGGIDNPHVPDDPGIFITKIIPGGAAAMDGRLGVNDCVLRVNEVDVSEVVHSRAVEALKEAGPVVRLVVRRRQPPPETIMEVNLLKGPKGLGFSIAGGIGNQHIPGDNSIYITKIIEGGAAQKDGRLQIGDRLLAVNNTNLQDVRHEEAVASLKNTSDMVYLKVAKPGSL
Experimental: as §1, §2

[4] = target: T1, GST-NeDLG fusion protein; test: biotinylated peptide titration on plate-bound GST fusion (FIG. 9B)
Experimental: 20 μM biotinylated synthetic peptide corresponding to the C-terminal 20 amino acids of CLASP-2 was reacted with the indicated plate bound GST fusion proteins (none=no GST fusion protein coated onto plate). Error bars indicate standard deviation of duplicate measurements. B. Affinity of CLASP 2-PDZ interactions. Varying concentrations of biotinylated CLASP-2 peptide were reacted with plate bound GST alone, GST-DLG1, GST-NeDLG, and GST-PSD95 fusion proteins. The binding to GST alone (<0.1 OD units) was subtracted from the binding to the fusion proteins and the remaining signal was divided by the signal observed upon addition of 30 μM CLASP-2 peptide to each PDZ domain-containing protein (0.4-1.0 OD units) and plotted. […] Data are means of duplicate data points, with standard errors between duplicate data points <10%. C. Inhibition of CLASP-2-PDZ binding. 5 μM biotinylated synthetic peptide corresponding to the C-terminal 20 amino acids of CLASP-2 was reacted with the indicated, plate-bound PDZ domain-containing GST fusion proteins in the presence or absence of 100 μM competitor peptide. CLASP-2 Inhibitor refers to a synthetic peptide composed of the eight C-terminal amino acids of CLASP-2. […]
The binding of a biotinylated carboxyl-terminal peptide to a GST-PDZ fusion protein is measured as follows: [0470] […]

Kd [1]: 45 µM
Kd [2]: 21 µM
Kd [3]: 7.5 µM
Ka [4]: ≥ 10000 M⁻¹
B1: biotinylated synthetic peptide corresponding to the C-terminal 20 amino acids of CLASP-2 (peptide)
peptide: VLHHHQNPEFYDEIKIELPTQLHEKHHLLLTFFHVSCDNSSKGSTKKRDVVETQVGYSWLPLLKDGRVVTSEQHIPVSANLPSGYLGYQELGMGRHYGPEIKWVDGGKPLLKISTHLVSTVYTQDQHLHNFFQYCQKTESGAQALGNELVKYLKSLHAMEGHVMIAFLPTILNQLFRVLTRATQEEVAVNVTRVIIHVVAQCHEEGLESHLRSYVKYAYKAEPYVASEYKTVHEELTKSMTTILKPSADFLTSNKLLRYSWFFFDVLIKSMAQHLIENSKVKLLRNQRFPASYHHAAETVVNMLMPHITQKFGDNPEASKNANHSLAVFIKRCFTFMDRGFVFKQINNYISCFAPGDPKTLFEYKFEFLRVVCNHEHYIPLNLPMPFGKGRIQRYQDLQLDYSLTDEFCRNHFLVGLLLREVGTALQEFREVRLIAISVLKNLLIKHSFDDRYASRSHQARIATLYLPLFGLLIENVQRINVRDVSPFPVNAGMTVKDESLALPAVNPLVTPQKGSTLDNSLHKDLLGAISGIASPYTTSTPNINSVRNADSRGSLISTDSGNSLPERNSEKSNSLDKHQQSSTLGNSVVRCDKLDQSEIKSLLMCFLYILKSMSDDALFTYWNKASTSELMDFFTISEVCLHQFQYMGKRYIARNQEGLGPIVHDRKSQTLPVSRNRTGMMHARLQQLGSLDNSLTFNHSYGHSDADVLHQSLLEANIATEVCLTALDTLSLFTLAFKNQLLADHGHNPLMKKVFDVYLCFLQKHQSETALKNVFTALRSLIYKFPSTFYEGRADMCAALCYEILKCCNSKLSSIRTEASQLLYFLMRNNFDYTGKKSFVRTHLQVIISVSQLIADVVGIGETRFQQSLSIINNCANSDRLIKHTSFSSDVKDLTKRIRTVLMATAQMKEHENDPEMLVDLQYSLAKSYASTPELRKTWLDSMARIHVKNGDLSEAAMCYVHVTALVAEYLTRKGVFRQGCTAFRVITPNIDEEASMMEDVGMQDVHFNEDVLMELLEQCADGLWKAERYELIADIYKLIIPIYEKRRDFFEDEDGKEYIYKEPKLTPLSEISQRLLKLYSDKFGSENVKMIQDSGKVNPKDLDSKYAYIQVTHVIPFFDEKELQERKTEFERSHNIRRFMFEMPFTQTGKRQGGVEEQCKRRTILTAIHCFPYVKKRIPVMYQHHTDLNPIEVAIDEMSKKVAELRQLCSSAEVDMIKLQLKLQGSVSVQVNAGPLAYARAFLDDTNTKRYPDNKVKLLKEVFRQFVEACGQALAVNERLIKEDQLEYQEEMKANYREMAKELSEIMHEQICPLEEKTSVLPNSLHIFNAISGTPTSTMVHGMTSSSSVV
modifications: biotin at the amino-terminus
